According to IntAct's records for PubMed 22270917:

B1: Focal adhesion kinase 1 (Homo sapiens), Q05397 (parent)
chain: MAAAYLDPNLNHTPNSSTKTHLGTGMERSPGAMERVLKVFHYFESNSEPTTWASIIRHGDATDVRGIIQKIVDSHKVKHVACYGFRLSHLRSEEVHWLHVDMGVSSVREKYELAHPPEEWKYELRIRYLPKGFLNQFTEDKPTLNFFYQQVKSDYMLEIADQVDQEIALKLGCLEIRRSYWEMRGNALEKKSNYEVLEKDVGLKRFFPKSLLDSVKAKTLRKLIQQTFRQFANLNREESILKFFEILSPVYRFDKECFKCALGSSWIISVELAIGPEEGISYLTDKGCNPTHLADFTQVQTIQYSNSEDKDRKGMLQLKIAGAPEPLTVTAPSLTIAENMADLIDGYCRLVNGTSQSFIIRPQKEGERALPSIPKLANSEKQGMRTHAVSVSETDDYAEIIDEEDTYTMPSTRDYEIQRERIELGRCIGEGQFGDVHQGIYMSPENPALAVAIKTCKNCTSDSVREKFLQEALTMRQFDHPHIVKLIGVITENPVWIIMELCTLGELRSFLQVRKYSLDLASLILYAYQLSTALAYLESKRFVHRDIAARNVLVSSNDCVKLGDFGLSRYMEDSTYYKASKGKLPIKWMAPESINFRRFTSASDVWMFGVCMWEILMHGVKPFQGVKNNDVIGRIENGERLPMPPNCPPTLYSLMTKCWAYDPSRRPRFTELKAQLSTILEEEKAQQEERMRMESRRQATVSWDSGGSDEAPPKPSRPGYPSPRSSEGFYPSPQHMVQTNHYQVSGYPGSHGITAMAGSIYPGQASLLDQTDSWNHRPQEIAMWQPNVEDSTVLDLRGIGQVLPTHLMEERLIRQQQEMEEDQRWLEKEERFLKPDVRLSRGSIDREDGSLQGPIGNQHIYQPVGKPDPAAPPKKPPRPGAPGHLGSLASLSSPADSYNEGVKLQPQEISPPPTANLDRSNDKVYENVTGLVKAVIEMSSKIQPAPPEEYVPMVKEVGLALRTLLATVDETIPLLPASTHREIEMAQKLLNSDLGELINKMKLAQQYVMTSLQQEYKKQMLTAAHALAVDAKNLLDVIDQARLKMLGQTRPH

Variants of: B1
Conditions: with tln1_chick TLN1, P54939
tln1_chick TLN1, P54939, sequence (P54939 whole entry): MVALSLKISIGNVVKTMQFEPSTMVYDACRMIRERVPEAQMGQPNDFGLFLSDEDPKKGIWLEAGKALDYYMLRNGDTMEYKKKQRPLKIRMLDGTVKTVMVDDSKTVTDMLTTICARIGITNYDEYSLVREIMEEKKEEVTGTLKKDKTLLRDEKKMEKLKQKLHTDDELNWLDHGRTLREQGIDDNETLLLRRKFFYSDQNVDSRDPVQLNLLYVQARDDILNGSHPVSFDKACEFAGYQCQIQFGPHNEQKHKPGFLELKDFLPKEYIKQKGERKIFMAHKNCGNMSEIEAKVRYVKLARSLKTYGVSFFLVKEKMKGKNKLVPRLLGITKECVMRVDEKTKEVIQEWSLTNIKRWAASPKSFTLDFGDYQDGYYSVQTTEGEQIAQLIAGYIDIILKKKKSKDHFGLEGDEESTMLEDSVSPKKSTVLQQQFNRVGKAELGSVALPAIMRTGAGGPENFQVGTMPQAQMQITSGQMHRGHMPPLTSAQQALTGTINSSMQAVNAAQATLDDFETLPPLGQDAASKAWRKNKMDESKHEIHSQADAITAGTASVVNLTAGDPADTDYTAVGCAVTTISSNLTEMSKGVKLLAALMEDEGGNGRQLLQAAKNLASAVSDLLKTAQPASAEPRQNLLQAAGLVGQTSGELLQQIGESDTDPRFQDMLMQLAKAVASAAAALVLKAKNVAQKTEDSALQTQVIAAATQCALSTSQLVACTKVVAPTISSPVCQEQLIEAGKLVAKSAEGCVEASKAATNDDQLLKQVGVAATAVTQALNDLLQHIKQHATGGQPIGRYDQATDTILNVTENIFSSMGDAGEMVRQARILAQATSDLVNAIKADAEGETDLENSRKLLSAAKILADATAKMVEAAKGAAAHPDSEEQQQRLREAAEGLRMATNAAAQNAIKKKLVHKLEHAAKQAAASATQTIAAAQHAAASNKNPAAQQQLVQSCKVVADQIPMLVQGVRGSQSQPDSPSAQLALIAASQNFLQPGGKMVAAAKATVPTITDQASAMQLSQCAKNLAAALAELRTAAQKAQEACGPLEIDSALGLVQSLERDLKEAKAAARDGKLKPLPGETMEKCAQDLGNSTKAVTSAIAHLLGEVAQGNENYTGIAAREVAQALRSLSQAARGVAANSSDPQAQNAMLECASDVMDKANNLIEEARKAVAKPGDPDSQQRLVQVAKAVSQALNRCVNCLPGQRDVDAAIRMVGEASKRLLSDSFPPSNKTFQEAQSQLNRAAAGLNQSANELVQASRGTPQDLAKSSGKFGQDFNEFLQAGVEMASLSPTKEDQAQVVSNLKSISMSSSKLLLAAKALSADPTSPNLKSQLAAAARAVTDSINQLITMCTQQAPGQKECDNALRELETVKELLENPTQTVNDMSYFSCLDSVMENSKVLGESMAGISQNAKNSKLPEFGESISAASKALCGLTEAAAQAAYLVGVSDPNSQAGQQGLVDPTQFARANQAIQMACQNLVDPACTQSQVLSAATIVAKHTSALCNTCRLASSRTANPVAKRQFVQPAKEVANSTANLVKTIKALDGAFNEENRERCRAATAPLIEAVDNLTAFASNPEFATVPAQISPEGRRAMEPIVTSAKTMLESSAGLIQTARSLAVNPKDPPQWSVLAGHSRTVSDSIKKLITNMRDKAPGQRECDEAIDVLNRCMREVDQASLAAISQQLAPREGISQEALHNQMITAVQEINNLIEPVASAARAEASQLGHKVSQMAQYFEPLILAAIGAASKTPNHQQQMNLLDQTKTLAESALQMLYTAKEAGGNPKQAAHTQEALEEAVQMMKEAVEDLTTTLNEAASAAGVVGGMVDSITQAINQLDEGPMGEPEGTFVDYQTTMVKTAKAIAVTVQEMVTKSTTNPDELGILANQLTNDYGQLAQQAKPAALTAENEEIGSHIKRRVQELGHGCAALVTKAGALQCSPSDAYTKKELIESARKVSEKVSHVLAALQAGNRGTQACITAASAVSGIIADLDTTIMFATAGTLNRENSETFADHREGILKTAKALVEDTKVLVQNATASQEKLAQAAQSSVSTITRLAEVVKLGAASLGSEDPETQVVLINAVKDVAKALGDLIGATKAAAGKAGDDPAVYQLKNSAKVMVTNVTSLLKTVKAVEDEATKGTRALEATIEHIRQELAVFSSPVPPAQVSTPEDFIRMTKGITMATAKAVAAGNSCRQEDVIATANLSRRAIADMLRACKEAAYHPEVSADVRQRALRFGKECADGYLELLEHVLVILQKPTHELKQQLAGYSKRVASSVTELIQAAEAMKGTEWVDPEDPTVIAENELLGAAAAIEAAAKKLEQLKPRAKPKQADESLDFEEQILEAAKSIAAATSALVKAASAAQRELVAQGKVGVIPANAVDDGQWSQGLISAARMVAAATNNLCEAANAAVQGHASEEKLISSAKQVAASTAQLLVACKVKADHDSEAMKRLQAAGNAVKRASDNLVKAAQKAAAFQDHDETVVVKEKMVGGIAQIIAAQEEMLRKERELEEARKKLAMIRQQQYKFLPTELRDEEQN

| effect of a mutation on the interaction | Variant |
| --- | --- |
| disrupting interaction | E1015A |
